According to the nanobody polyreactivity screen of Harvey et al. (2022):

Experiment: yeast display, Sf9 membrane polyspecificity reagent, FACS + sequencing; frameworks hold sequencing errors
How it was run: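 Genes from sorted yeast were amplified by colony PCR, read by MiSeq 2 × 250 sequencing and filtered on CDR length. These cells carried a synthetic nanobody library in Saccharomyces cerevisiae BJ5465 and were sorted by FACS into low and high (top ~1%) gates on anti-HA and streptavidin fluorescence. Polyreactivity is labelled according to the gate of origin.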

Sequence | polyreactivity (PSR sort gate)
QVQLVESGGGLVQAGGSLRLSCAASGSTFRTYAMGWYRQAPGKVRELVAAITNGGSTYADSVKGRFTISRDNAKNTVYLQMNSLKPEDTAVYYCNADFGFGYVSLLYEYWGQGTQVTVSS | low polyreactivity
QVQLVESGGGLVQAGGSLRLSCAASGSTFRTYAMGWYRQAPGQERELVAASDSSGGNTYYADSVKGRCTISRDPAKNTVYLQMNSLKPEDTAVYYCARESVTYFWYYTPEVDYWGQGTQVTVSS | low polyreactivity
QVQLVESGGGLVQAGGSLRLSCAASGSTFRTYTMGWYRQAPGKERELVAAISSIGSSTFYADSVKGRFTISRDNAKNTVYLQMISLKPEDTAVYYCAAVRRGGGVIYDYWGQGTQVTVSS | high polyreactivity
QVQLVESGGGLVQAGGSLRLSCAASGSTFRTYVMGWYRQAPGKERELVAAITRSGVSTSYADSVKGRFTISRDNAKNTVYLQMNSLKPEDTAVYYCAATKYDDGYSWTHYYYWGQGTQVTVSS | high polyreactivity
QVQLVESGGGLVQAGGSLRLSCAASGSTFRVNAMGWYRQAPGKERELVAAISSSGGITYYADSVKGRFTISRDNAKNTVYLQMNSLKPEDTAVYYCAKGTVIHVLYDYWGQGTQVTVSS | low polyreactivity
QVQLVESGGGLVQAGGSLRLSCAASGSTFRWNAMGWYRQAPGKETELVAAITRSVGSTYYADSVKGRFTISRDNAKNTVYLQMNSLKPEDTAVYYCAADFYYYGFDYWGQGTQVTVSS | low polyreactivity
QVQLVESGGGLVQAGGSLRLSCAASGSTFRWYDMGGYRQAPGKEREFVAAITSSGGSTYYADSVKGRFTISRDNAKNTVYLQMNSLKPEYNAVYYCNRRYQPYSYDYWGQGTQVTVSS | high polyreactivity
QVQLVESGGGLVQAGGSLRLSCAASGSTFRWYTMGWYRQAPGKERELVAAINQSGSRTYYADSVKGRFTISRDNAKNTVYLQMNSLKPEDTAGYYCNAKSYKSPHTYYYWGQGTQVTVSS | high polyreactivity
QVQLVESGGGLVQAGGSLRLSCAASGSTFRYNAMGWYRQAPGKERELVAAINRGGGTDYADSVKGRFTISRDNAKNTVYLQMNSLKPEDTAVYYCAKQFVSYNRWLAYGYWGQGTQVTVSS | low polyreactivity
QVQLVESGGGLVQAGGSLRLSCAASGSTFRYNAMGWYRQAPGKERELVAAINWSGSSTYYADSVKGRVTISRDNAKNTVYLQMNRLKPEDTAVNYCAAERPWYTKWGEYWGQGTQVTVSS | high polyreactivity
QVQLVESGGGLVQAGGSLRLSCAASGSTFRYNAMGWYRQAPGKERELVAAITSSGSRTYYADSVKGRFTISRDNAKNTVYFQMISLKPEDTAVYYCAAYGYYTKVTKYDYWGQGTQVTVSS | high polyreactivity
QVQLVESGGGLVQAGGSLRLSCAASGSTFRYNAMGWYRQAPGKERELVASISYNGGNTYYADSVKGRFTISRDNSKNTVYLQMNSLKPEDTAVYYCAAVPIKRGLILGDRGYNYWGQGTQVTVSS | high polyreactivity
QVQLVESGGGLVQAGGSLRLSCAASGSTFRYNAMGWYRQEPGKERELVAAISSSGGSTRYADSVKGRFTISRDNAKNTVYLQMNSLKPEDTAVYHCAVRFYDWRYYYWGQGTQVTVSS | high polyreactivity
QVQLVESGGGLVQAGGSLRLSCAASGSTFRYNTMGWYRQAPGKERELVARITSVGSTNYADSVKGRFTISRDNAKNTVYLQMNSLKPEDTAVYYCATTRPIRRTSARYNYWGQGTQVTVSS | low polyreactivity
QVQLVESGGGLVQAGGSLRLSCAASGSTFRYYAKGWYRQAPGKERELVAAINYGGGRTYYADSVKGRFTISRDIAKNTVYLQMNSLKPEDTAVYYCATGYYYYRFYTYGYWGQGTQVTVSS | high polyreactivity
QVQLVESGGGLVQAGGSLRLSCAASGSTFRYYALGWYRQAPGKEREVVASISIGGGSTYYADSVKGRFTISRDYAKNTVYVQMNSLKPEDTAVYYCAAERTIRAARPFFRTFDYWGQGTQVTVSS | low polyreactivity

Sequence | polyreactivity (PSR sort gate)
QVQLVESGGGLVQAGGSLRLSCAASGSTFRYYAMGWYRQAPGKEREFVAAINWSGTSTYYADSVKGRFTISRDNAKNTVYLQMNRLKPEDTAVYYCNARYGLRYVRYGEMDYWGQGTQVTVSA | high polyreactivity
QVQLVESGGGLVQAGGSLRLSCAASGSTFRYYAMGWYRQAPGKERELVAAIDWSGGTTYYADSVKGRFTISRDNAKNTFYLQMNSLKPEDTAVYYCAADSSRRIGEDYWGHGTQVTVSS | low polyreactivity
QVQLVESGGGLVQAGGSLRLSCAASGSTFRYYAMGWYRQAPGKERELVAAISRRGGSSYYADSVKGRFTISRDNAKKTVYLQMNSLKPEDTAVYYCNAAASTFTSWIRGPGVCYDYWGQGTQVTVSS | high polyreactivity
QVQLVESGGGLVQAGGSLRLSCAASGSTFRYYAMGWYRQAPGKERELVAAISRSGGRTYYADSVKGRFTISRDNAKNTAYLQMNRLKPEDTAVYYCAVVVWWFTGCLGPYDYWGKGTQVTVSS | high polyreactivity
QVQLVESGGGLVQAGGSLRLSCAASGSTFRYYAMGWYRQAPGKERELVAAISYGGGITNYADSVKGRLTISRDNAKNTVYLQMNSLKPEDTAVYYCAAYDRITRYDYWGQGTQVTVSS | high polyreactivity
QVQLVESGGGLVQAGGSLRLSCAASGSTFRYYAMGWYRQAPGKERELVAAITWSGGRTTYADSVKGRFTISRDNAKNTVYLQMNSLKPEDTAVYYCAAEWHYFVTMYYWGQGTQVTVSS | low polyreactivity
QVQLVESGGGLVQAGGSLRLSCAASGSTFRYYAMGWYRQAPGKERELVAGITRIGGRTYYADSVKGRFTISRDNAKNTVDLQMNSLKPEDTAVYYCAADYGGFLGYDYWGQGTQVTLSS | high polyreactivity
QVQLVESGGGLVQAGGSLRLSCAASGSTFRYYAMGWYRQAPGKERELVASITWSGGSTYYADSVKGRFTISRDNAKNTVYLQMNSLKPEDTAVYYCAARQYIGSPPHRRRFDYWGQGTQVTVSS | high polyreactivity
QVQLVESGGGLVQAGGSLRLSCAASGSTFRYYSMGWYRQAPGKERELVAAITYRGGRTYYADSVKGRFTISRDNAKNTDYLQKNSLKPEDTAVYYCAAKSGRHSMDSSGQGTQVTVSS | low polyreactivity
QVQLVESGGGLVQAGGSLRLSCAASGSTFRYYTMGWYRQAPGKERELVAAISSSGTRTYYADSVKGRFTISRDYAKNTVYLQMNSLKPEDTAVYYCDTVFLRSDGWRRSNMDYWGQGTQVTVSS | high polyreactivity
QVQLVESGGGLVQAGGSLRLSCAASGSTFRYYTMGWYRQAPGKERELVAAITWSGGSTYYADSVKGRFTISRDNAKNTVYLQMNSLKPEDTAVYYCAADRYSYGSNGYPRFEYYYWGQGTQVTVSS | high polyreactivity
QVQLVESGGGLVQAGGSLRLSCAASGSTFSANTMGWYRQAPGKERELVAAISSSGVGTRYADSVKGRFTISRDNAKNTVYLQMNSLKPEDTAVYYCNADLYGGGDKSVISGLNGEYEYWGQGTQVTVSS | low polyreactivity
QVQLVESGGGLVQAGGSLRLSCAASGSTFSANTMGWYRQAPGKQREFVAAISSSGVGTRYADSVKGRFTISRDYAKNTVYLQMNSLKPEDTAVYYCAADYRPTVITRNDYWGQGTQVTVSS | low polyreactivity
QVQLVESGGGLVQAGGSLRLSCAASGSTFSDNAMGWSRQAPGKERELVATIDYDGSTYYADSVKGRFTISRDNAKNTVYLQMNSLRTEDTAVYYCAADVYQVPGPYWSRTYEYDYWGQGTQVTVSS | low polyreactivity
QVQLVESGGGLVQAGGSLRLSCAASGSTFSDNAMGWYRQAPGKERELVAAITSGGSTYYADSVKGRFTISRDNAKNTVYLQMNSLKPEDTAVYYCATGGVTFGSVVRGVDGDYWGQGTQVTVSS | low polyreactivity
